{"source": "paper PMC9984387", "about": "“The dynamic nature of netrin-1 and the structural basis for glycosaminoglycan fragment-induced filament formation” (Nature Communications, 2023)", "target": "Gallus gallus NET1ΔC loop cd (R374A H375A K395A H399A R400A K401A) (Gallus gallus, UniProt Q90922 26-458, R374A | H375A | K395A | H399A | R400A | K401A)", "experiment": "ELISA; glypican-3 coated (0.5 µg/well); soluble NET1ΔC alone (0.5–500 nM, or 500 nM pre-incubated with HO-dp20 for competition); detection with polyclonal NET1 antibody", "conditions": "both partners purified", "data": [{"binder": "glypican-3 (AF185614 aa 25-557 R357A) (domain or fragment, three extended GAG chains are attached to the core protein, Glypican-3, AF185614 aa 25-557; Heparan sulphate proteoglycan; also called GPC3; source: HEK 293 (sleeping beauty transposon system, BM40 signal peptide), purified (Strep-Tactin)) QPPPPPDATCHQVRSFFQRLQPGLKWVPETPVPGSDLQVCLPKGPTCCSRKMEEKYQLTARLNMEQLLQSASMELKFLIIQNAAVFQEAFEIVVRHAKNYTNAMFKNNYPSLTPQAFEFVGEFFTDVSLYILGSDINVDDMVNELFDSLFPVIYTQMMNPGLPESVLDINECLRGARRDLKVFGSFPKLIMTQVSKSLQVTRIFLQALNLGIEVINTTDHLKFSKDCGRMLTRMWYCSYCQGLMMVKPCGGYCNVVMQGCMAGVVEIDKYWREYILSLEELVNGMYRIYDMENVLLGLFSTIHDSIQYVQKNGGKLTTTIGKLCAHSQQRQYASAYYPEDLFIDKKILKVAHVEHEETLSSRRRELIQKLKSFINFYSALPGYICSHSPVAENDTLCWNGQELVERYSQKAARNGMKNQFNLHELKMKGPEPVVSQIIDKLKHINQLLRTMSVPKGKVLDKSLDEEGLESGDCGDDEDECIGSSGDGMVKVKNQLRFLAELAYDLDVDDAPGNKQHGNQKDNEITTSHSVGNM", "values": [{"measurement": "binding result", "value": "binds"}]}]}
